Data: US20210246166A1 (Bayer, published 2021)
Numbered stars: 1 amine (or outer) side, 2 acyl side, 3 side chain; on linkers, the order of the positions; unused ones are H or OH. Bridge positions count the residues as written; N and C are the ends. Square brackets hold non-standard residues; d marks the D form. Ends that are not written are not given here. cPrCO(1-aminomethyl) = O=C(C1(CN[*:1])CC1)[*:2]; Oic = O=C(O)[C@@H]1C[C@@H]2CCCC[C@@H]2N1; PEG7 = NCCOCCOCCOCCOCCOCCOCCOCCC(=O)O; tBuAla = CC(C)(C)C[C@H](N)C(=O)O; Cit = NC(=O)NCCC[C@H](N)C(=O)O; Pen = CC(C)(S)[C@H](N)C(=O)O; NMeC = CN[C@@H](CS)C(=O)O; Pip = O=C(O)[C@@H]1CCCCN1; Orn = NCCC[C@H](N)C(=O)O; Sar = CNCC(=O)O

T1: recombinant human MASP1 active protease (amino acids 297-699, C-terminal His Tag) (human, UniProt P48740 297-699)
T1 sequence: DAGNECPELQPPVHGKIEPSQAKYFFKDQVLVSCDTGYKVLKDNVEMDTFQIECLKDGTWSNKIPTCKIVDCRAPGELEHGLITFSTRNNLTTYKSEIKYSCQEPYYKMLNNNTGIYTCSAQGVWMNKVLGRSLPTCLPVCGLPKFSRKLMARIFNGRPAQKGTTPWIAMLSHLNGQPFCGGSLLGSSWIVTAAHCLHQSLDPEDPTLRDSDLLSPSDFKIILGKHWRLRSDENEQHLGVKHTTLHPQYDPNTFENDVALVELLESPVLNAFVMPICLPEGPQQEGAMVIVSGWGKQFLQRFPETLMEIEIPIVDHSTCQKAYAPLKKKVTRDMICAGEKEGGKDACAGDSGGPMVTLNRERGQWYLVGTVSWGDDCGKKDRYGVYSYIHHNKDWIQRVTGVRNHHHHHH


Molecular target: T1, recombinant human MASP1 active protease …
Test: cell-based or functional assay

Row | human MASP1 IC50 | Binder
1 | 1.9 nM | [Pip]ICSRS[tBuAla]PPI[NMeC]IPD-NH2 (disulfide 3-11; N-terminus assumed; SMILES CC[C@H](C)[C@H](NC(=O)[C@@H]1CCCCN1)C(=O)N[C@H]1CSSC[C@@H](C(=O)N[C@H](C(=O)N2CCC[C@H]2C(=O)N[C@@H](CC(=O)O)C(N)=O)[C@@H](C)CC)N(C)C(=O)[C@H]([C@@H](C)CC)NC(=O)[C@@H]2CCCN2C(=O)[C@@H]2CCCN2C(=O)[C@H](CC(C)(C)C)NC(=O)[C@H](CO)NC(=O)[C@H](CCCNC(=N)N)NC(=O)[C@H](CO)NC1=O) [(Pip)-IC+SRS-((tBu)A)-PPI-((N-Me)C)+IPD-NH2]
2 | 1.6 nM | [Sar]ICSRS[tBuAla]PPI[Pen]IP[PEG7]-NH2 (disulfide 3-11; N-terminus assumed; SMILES CC[C@H](C)[C@H](NC(=O)CNC)C(=O)N[C@H]1CSSC(C)(C)[C@@H](C(=O)N[C@H](C(=O)N2CCC[C@H]2C(=O)NCCOCCOCCOCCOCCOCCOCCOCCC(N)=O)[C@@H](C)CC)NC(=O)[C@H]([C@@H](C)CC)NC(=O)[C@@H]2CCCN2C(=O)[C@@H]2CCCN2C(=O)[C@H](CC(C)(C)C)NC(=O)[C@H](CO)NC(=O)[C@H](CCCNC(=N)N)NC(=O)[C@H](CO)NC1=O) [((N-Me)G)-IC+SRS-((tBu)A)-PPI-(Pen)+IP-(PEG7(25 atoms))-NH2]
3 | 1.35 nM | [Orn]ICSRS[tBuAla]PPI[Pen]IPD-OH (disulfide 3-11; N-terminus assumed; SMILES CC[C@H](C)[C@H](NC(=O)[C@@H](N)CCCN)C(=O)N[C@H]1CSSC(C)(C)[C@@H](C(=O)N[C@H](C(=O)N2CCC[C@H]2C(=O)N[C@@H](CC(=O)O)C(=O)O)[C@@H](C)CC)NC(=O)[C@H]([C@@H](C)CC)NC(=O)[C@@H]2CCCN2C(=O)[C@@H]2CCCN2C(=O)[C@H](CC(C)(C)C)NC(=O)[C@H](CO)NC(=O)[C@H](CCCNC(=N)N)NC(=O)[C@H](CO)NC1=O) [(Orn)-IC+SRS-((tBu)A)-PPI-(Pen)+IPD-OH]
4 | 1.6 nM | [cPrCO(1-aminomethyl)]ICSRS[tBuAla]PPI[Pen]IPD-NH2 (disulfide 3-11; N-terminus assumed; SMILES CC[C@H](C)[C@@H]1NC(=O)[C@@H]2CCCN2C(=O)[C@@H]2CCCN2C(=O)[C@H](CC(C)(C)C)NC(=O)[C@H](CO)NC(=O)[C@H](CCCNC(=N)N)NC(=O)[C@H](CO)NC(=O)[C@@H](NC(=O)[C@@H](NC(=O)C2(CN)CC2)[C@@H](C)CC)CSSC(C)(C)[C@@H](C(=O)N[C@H](C(=O)N2CCC[C@H]2C(=O)N[C@@H](CC(=O)O)C(N)=O)[C@@H](C)CC)NC1=O) [(ACMP)-IC+SRS-((tBu)A)-PPI-(Pen)+IPD-NH2]
5 | 1.5 nM | AICSRSLP[Oic]I[Pen]IPD-NH2 (disulfide 3-11; also: HCl salt) [AIC+SRSLP-(Oic)-I-(Pen)+IPD-NH2 (HCl salt)]
6 | 1.5 nM | AICSRSLP[Oic]I[Pen]IPD-NH2 (disulfide 3-11) [AIC+SRSLP-(Oic)-I-(Pen)+IPD-NH2 (salt free form)]
7 | 1.6 nM | [(1R,3S,4S)‑2‑azabicyclo(2.2.1)heptane‑3‑carboxylic acid]ICSRS[tBuAla]PPI[Pen]IP-NH2 (disulfide 3-11) [((1R,3S,4S)-2-azabicyclo[2.2.1]heptane-3-carboxylic acid)-IC+SRS-((tBu)A)-PPI-(Pen)+IP-NH2]
8 | 1.7 nM | [Cit]ICSRS[tBuAla]PPI[Pen]IPD-NH2 (disulfide 3-11; N-terminus assumed; SMILES CC[C@H](C)[C@H](NC(=O)[C@@H](N)CCCNC(N)=O)C(=O)N[C@H]1CSSC(C)(C)[C@@H](C(=O)N[C@H](C(=O)N2CCC[C@H]2C(=O)N[C@@H](CC(=O)O)C(N)=O)[C@@H](C)CC)NC(=O)[C@H]([C@@H](C)CC)NC(=O)[C@@H]2CCCN2C(=O)[C@@H]2CCCN2C(=O)[C@H](CC(C)(C)C)NC(=O)[C@H](CO)NC(=O)[C@H](CCCNC(=N)N)NC(=O)[C@H](CO)NC1=O) [(Cit)-IC+SRS-((tBu)A)-PPI-(Pen)+IPD-NH2]
9 | 2.45 nM | AICSRSLP[Oic]I[Pen]IPD-OH (disulfide 3-11; also: HCl salt) [AIC+SRSLP-(Oic)-I-(Pen)+IPD-OH (HCl salt)]
